Patent US20160362464A1

Experiments:
[1] = molecular target: CFP-Gβ1 with untagged Gγ2; experiment: FRET at the plasma membrane of control HeLa cells, before Wnt5a stimulation (FIG. 2J, L)
[2] = molecular target: CFP-Gβ1 with untagged Gγ2; experiment: FRET at the plasma membrane of control HeLa cells, within 5 min after Wnt5a stimulation (FIG. 2J, L)
FZD7-CFP [3] = experiment: FRET at the plasma membrane of HEK293 cells within 5 min after Wnt5a stimulation (FIG. 4H, I)
FZD7-CFP [4] = experiment: FRET at the plasma membrane of starved HEK293 cells; printed: No such interaction was observed in starved cells (FIG. 4H, I)

Sequence of CFP-Gβ1 with untagged Gγ2 (P62873 2-340, chain 1 of 2): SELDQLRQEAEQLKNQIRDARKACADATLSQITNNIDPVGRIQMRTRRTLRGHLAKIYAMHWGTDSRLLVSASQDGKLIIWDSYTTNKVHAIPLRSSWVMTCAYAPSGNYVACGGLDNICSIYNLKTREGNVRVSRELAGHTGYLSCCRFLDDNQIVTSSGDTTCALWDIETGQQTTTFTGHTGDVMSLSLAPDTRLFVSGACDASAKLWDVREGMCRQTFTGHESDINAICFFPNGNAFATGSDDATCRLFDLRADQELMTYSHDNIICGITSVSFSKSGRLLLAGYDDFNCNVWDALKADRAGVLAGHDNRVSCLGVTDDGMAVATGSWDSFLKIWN
Sequence of CFP-Gβ1 with untagged Gγ2 (P59768 2-68, chain 2 of 2, further chain): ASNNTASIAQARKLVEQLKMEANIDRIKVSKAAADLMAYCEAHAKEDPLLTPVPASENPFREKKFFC
Sequence of Gαi1-YFP (internally tagged) (P10824 2-354): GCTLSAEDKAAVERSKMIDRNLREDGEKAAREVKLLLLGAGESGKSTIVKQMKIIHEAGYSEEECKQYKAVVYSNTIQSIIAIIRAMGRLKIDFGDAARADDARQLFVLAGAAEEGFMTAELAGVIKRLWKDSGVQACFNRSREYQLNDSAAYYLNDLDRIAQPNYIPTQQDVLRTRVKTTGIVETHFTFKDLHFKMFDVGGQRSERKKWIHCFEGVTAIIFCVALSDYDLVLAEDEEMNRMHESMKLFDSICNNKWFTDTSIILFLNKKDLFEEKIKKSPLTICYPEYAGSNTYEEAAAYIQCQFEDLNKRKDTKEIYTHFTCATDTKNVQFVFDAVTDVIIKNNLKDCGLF

FRET efficiency [1]	FRET efficiency [2]	FRET efficiency (FZD7-CFP [3])	FRET efficiency (FZD7-CFP [4])	Substance
0.36	0.17	–	–	Gαi1-YFP (internally tagged)
–	–	0.25	0.04	Gαi3-YFP (internally tagged)
